First the molecules themselves.
T1: Tof1 (S. cerevisiae, UniProt P53840 1-1238, phosphorylated (sites not given))
T1 construct: Tof1, S. cerevisiae; residues 13-781 are resolved in the map; The Tof1 chain of m2; source: S. cerevisiae, overexpressed with Csm3, purified as Csm3/Tof1; in XL-MS part of the co-expressed, co-purified complex (yJY74)
T1 sequence: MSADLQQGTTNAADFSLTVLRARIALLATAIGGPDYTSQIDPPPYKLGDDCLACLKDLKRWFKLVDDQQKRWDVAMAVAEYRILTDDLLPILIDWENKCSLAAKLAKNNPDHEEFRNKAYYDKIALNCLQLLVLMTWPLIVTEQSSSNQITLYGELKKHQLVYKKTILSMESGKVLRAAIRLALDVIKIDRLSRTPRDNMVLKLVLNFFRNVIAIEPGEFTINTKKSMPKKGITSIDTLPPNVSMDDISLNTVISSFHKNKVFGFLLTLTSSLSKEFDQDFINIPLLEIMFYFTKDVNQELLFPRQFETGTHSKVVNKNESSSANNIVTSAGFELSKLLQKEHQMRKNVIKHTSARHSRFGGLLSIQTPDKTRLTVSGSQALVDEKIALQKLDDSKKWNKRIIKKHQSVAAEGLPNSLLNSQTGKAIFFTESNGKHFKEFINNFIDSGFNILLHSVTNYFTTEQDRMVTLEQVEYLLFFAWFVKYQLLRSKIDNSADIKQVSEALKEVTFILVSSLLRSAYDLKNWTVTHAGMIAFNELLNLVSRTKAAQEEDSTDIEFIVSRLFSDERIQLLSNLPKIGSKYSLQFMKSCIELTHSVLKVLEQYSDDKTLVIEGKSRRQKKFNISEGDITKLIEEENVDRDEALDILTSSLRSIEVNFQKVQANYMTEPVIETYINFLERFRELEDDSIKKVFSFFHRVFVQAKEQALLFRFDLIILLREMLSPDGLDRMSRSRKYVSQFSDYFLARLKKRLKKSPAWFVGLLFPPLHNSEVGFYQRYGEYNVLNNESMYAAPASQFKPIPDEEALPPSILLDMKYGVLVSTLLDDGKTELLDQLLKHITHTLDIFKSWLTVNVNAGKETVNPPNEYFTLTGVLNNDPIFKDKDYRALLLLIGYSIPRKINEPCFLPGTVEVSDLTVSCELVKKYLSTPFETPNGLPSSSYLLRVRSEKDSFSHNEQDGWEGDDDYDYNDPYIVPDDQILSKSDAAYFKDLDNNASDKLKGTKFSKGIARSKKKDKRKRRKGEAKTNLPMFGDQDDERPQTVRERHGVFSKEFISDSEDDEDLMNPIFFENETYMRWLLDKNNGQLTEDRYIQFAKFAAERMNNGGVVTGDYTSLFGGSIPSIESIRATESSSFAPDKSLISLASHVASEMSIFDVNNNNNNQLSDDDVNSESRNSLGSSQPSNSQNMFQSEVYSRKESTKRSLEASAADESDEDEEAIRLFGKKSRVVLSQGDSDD

B1: Csm3 (natural protein, S. cerevisiae)
chain: MDQDFDSLLLGFNDSDSVQKDPTVPNGLDGSVVDPTIADPTAITARKRRPQVKLTAEKLLSDKGLPYVLKNAHKRIRISSKKNSYDNLSNIIQFYQLWAHELFPKAKFKDFMKICQTVGKTDPVLREYRVSLFRDEMGMSFDVGTRETGQDLERQSPMVEEHVTSAEERPIVADSFAQDKRNVNNVDYDNDEDDDIYHLSYRNRRGRVLDERGNNETVLNNVVPPKEDLDALLKTFRVQGPVGLEENEKKLLLGWLDAHRKMEKGSMTEEDVQLIQSLEEWEMNDIEGQHTHYDLLPGGDEFGVDQDELDAMKEMGF
notes: Csm3, S. cerevisiae; residues 46-139 are resolved in the map; The Csm3 chain of m2; source: S. cerevisiae, overexpressed with Tof1, purified as Csm3/Tof1; in XL-MS part of the co-expressed, co-purified complex (yJY74)
B2: Mcm7 (natural protein, S. cerevisiae)
chain: MSAALPSIQLPVDYNNLFNEITDFLVTFKQDTLSSDATRNENEDENLDAENIEQHLLEKGPKYMAMLQKVANRELNSVIIDLDDILQYQNEKFLQGTQADDLVSAIQQNANHFTELFCRAIDNNMPLPTKEIDYKDDVLDVILNQRRLRNERMLSDRTNEIRSENLMDTTMDPPSSMNDALREVVEDETELFPPNLTRRYFLYFKPLSQNCARRYRKKAISSKPLSVRQIKGDFLGQLITVRGIITRVSDVKPAVEVIAYTCDQCGYEVFQEVNSRTFTPLSECTSEECSQNQTKGQLFMSTRASKFSAFQECKIQELSQQVPVGHIPRSLNIHVNGTLVRSLSPGDIVDVTGIFLPAPYTGFKALKAGLLTETYLEAQFVRQHKKKFASFSLTSDVEERVMELITSGDVYNRLAKSIAPEIYGNLDVKKALLLLLVGGVDKRVGDGMKIRGDINVCLMGDPGVAKSQLLKAICKISPRGVYTTGKGSSGVGLTAAVMKDPVTDEMILEGGALVLADNGICCIDEFDKMDESDRTAIHEVMEQQTISISKAGINTTLNARTSILAAANPLYGRYNPRLSPLDNINLPAALLSRFDILFLMLDIPSRDDDEKLAEHVTYVHMHNKQPDLDFTPVEPSKMREYIAYAKTKRPVMSEAVNDYVVQAYIRLRQDSKREMDSKFSFGQATPRTLLGIIRLSQALAKLRLADMVDIDDVEEALRLVRVSKESLYQETNKSKEDESPTTKIFTIIKKMLQETGKNTLSYENIVKTVRLRGFTMLQLSNCIQEYSYLNVWHLINEGNTLKFVDDGTMDTDQEDSLVSTPKLAPQTTASANVSAQDSDIDLQDA
notes: Mcm7, S. cerevisiae, subunit of CMG; source: S. cerevisiae, overexpressed, purified as part of CMG
B3: Ctf4 (natural protein, S. cerevisiae)
chain: MVSVIDKLVFDFGGKTLVSLAPDNNTLCVANKNGLTKILKTNNPEEEPETLDSSKLVSSIKCYSNSHFLMTTMQGDALRYNIDSSQEELLARFALPLRDCCVIHSGKMAVFGGDDLELILLELDDETHKKHAIKIDEQVSQISYNSQMNILAVSMINGKVQIFSLTSTIPNKVHELNDYIVANSYDDTHRDKILSNMMDDIDKDNDNDLSETADPDENNVADPEFCAANRICTRVAWHPKGLHFALPCADDTVKIFSIKGYSLQKTLSTNLSSTKAHFIDLQFDPLRGTYIAAVDLNNKLTVWNWETSEIHYTREFKRKITNIAWKIQADSKTLDLVLGTWSGSIAIVQNLAESVVSNIPDQSVAESSTKHGLFVDSESDLENLEGNDDINKSDKLFSDITQEANAEDVFTQTHDGPSGLSEKRKYNFEDEEDFIDDDDGAGYISGKKPHNEHSYSRVHKTHSFPISLANTGKFRYMPFSPAGTPFGFTDRRYLTMNEVGYVSTVKNSEQYSITVSFFDVGRFREYHFEDLFGYDLCFLNEKGTLFGQSKTGQIQYRPHDSIHSNWTKIIPLQAGERITSVAATPVRVIVGTSLGYFRSFNQFGVPFAVEKTSPIVALTAQNYRVFSVHYSQFHGLSYSLSELGTSSKRYYKRECPLPMSLPNINSDMKKDANLDYYNFNPMGIKSLFFSSYGDPCIFGSDNTLLLLSKWRSPEESKWLPILDSNMEIWKMSGGKETTDIHVWPLALAYDTLNCILVKGKHIWPEFPLPLPSEMEIRMPVFVKSKLLEENKAILNKKNEIGADTEAEEGEEDKEIQIPVSMAAEEEYLRSKVLSELLTDTLENDGEMYGNENEVLAALNGAYDKALLRLFASACSDQNVEKALSLAHELKQDRALTAAVKISERAELPSLVKKINNIREARYEQQLK
notes: Ctf4, S. cerevisiae; only the C-terminal part is resolved in the map; Homotrimer; also called Ctf4 trimer; Ctf4_(3); source: purified as previously described (Yeeles et al., 2015); also co-expressed with CMG, Csm3/Tof1 and Mrc1 in S. cerevisiae yJY74 and co-purified

Experiment in all cases: cryo-EM structure; reconstituted from purified CMG, fork DNA, Csm3/Tof1, Ctf4, Mrc1 with AMP-PNP; glycerol gradient fixation (glutaraldehyde and BS3)
The target of series [1] is B2. Conditions: both partners purified.
The target in series [2] is T1, Tof1. Conditions: both partners purified.
Series [3] deals with the molecule itself.

Regarding B1, in series [1], the binding result was “binds”.
In the case of B2, the binding result in series [2] is listed as “binds”.
Turning to B3, the “stoichiometry N” value in series [3] came out at 3.

For orientation: stoichiometry N means a count of units in the complex or per binding partner.

The values are drawn from publication PMC7276988, “Cryo-EM Structure of the Fork Protection Complex Bound to CMG at a Replication Fork” (Molecular Cell, 2020).
